According to article PMC3511314, “Functional Characterization of Two M42 Aminopeptidases Erroneously Annotated as Cellulases” (PLoS ONE, 2012):

B1: YpdE, M42 aminopeptidase of E. coli (enzyme, UniProt P77585 1-345, looked up)
chain: MDLSLLKALSEADAIASSEQEVRQILLEEADRLQKEVRFDGLGSVLIRLNESTGPKVMICAHMDEVGFMVRSISREGAIDVLPVGNVRMAARQLQPVRITTREECKIPGLLDGDRQGNDVSAMRVDIGARSYDEVMQAGIRPGDRVTFDTTFQVLPHQRVMGKAFDDRLGCYLLVTLLRELHDAELPAEVWLVASSSEEVGLRGGQTATRAVSPDVAIVLDTACWAKNFDYGAANHRQIGNGPMLVLSDKSLIAPPKLTAWVETVAAEIGVPLQADMFSNGGTDGGAVHLTGTGVPTVVMGPATRHGHCAASIADCRDILQMQQLLSALIQRLTRETVVQLTDFR
notes: YpdE, one of three M42 aminopeptidases of E. coli; Only named in the discussion as unpublished data; the construct is not described; copies: 12
B2: TmPep1050 protein of Thermotoga maritima (TM1050 ORF) (enzyme, UniProt Q9X0E0 1-331, looked up)
chain: MKELIRKLTEAFGPSGREEEVRSIILEELEGHIDGHRIDGLGNLIVWKGSGEKKVILDAHIDEIGVVVTNVDDKGFLTIEPVGGVSPYMLLGKRIRFENGTIGVVGMEGETTEERQENVRKLSFDKLFIDIGANSREEAQKMCPIGSFGVYDSGFVEVSGKYVSKAMDDRIGCAVIVEVFKRIKPAVTLYGVFSVQEEVGLVGASVAGYGVPADEAIAIDVTDSADTPKAIKRHAMRLSGGPALKVKDRASISSKRILENLIEIAEKFDIKYQMEVLTFGGTNAMGYQRTREGIPSATVSIPTRYVHSPSEMIAPDDVEATVDLLIRYLGA
notes: TmPep1050, M42 aminopeptidase of Thermotoga maritima, product of the TM1050 ORF carried by the JCSG plasmid TmCD00089984; predicted molecular weight of the monomer 37.5 kDa; the tag of the JCSG construct is not described; also called 3ISX; source: E. coli MC1061, plasmid TmCD00089984, purified (heat step 60°C, Ni-NTA IMAC, Superdex 200)

What was measured:
[1] = target: the molecule itself; assay: not stated; unpublished data; oligomeric state of YpdE, method not given
[2] = target: the molecule itself; assay: SEC; gel filtration on Superdex 200 (16/70 column), final step of the purification, 50 mM Tris, 300 mM NaCl pH 7.3; for CelM all buffers with 1 mM glutathione; oligomer size from the apparent mass at elution

Row | Protein | stoichiometry N [1] | stoichiometry N [2]
1 | B1 | 12 | –
2 | B2 | – | 2
